Biological target: the molecule itself
Assay: SAXS

B1: EccCb1 enzyme, full length (Met1-Glu591), M. tuberculosis ESX-1 (enzyme)
chain: MTAEPEVRTLREVVLDQLGTAESRAYKMWLPPLTNPVPLNELIARDRRQPLRFALGIMDEPRRHLQDVWGVDVSGAGGNIGIGGAPQTGKSTLLQTMVMSAAATHSPRNVQFYCIDLGGGGLIYLENLPHVGGVANRSEPDKVNRVVAEMQAVMRQRETTFKEHRVGSIGMYRQLRDDPSQPVASDPYGDVFLIIDGWPGFVGEFPDLEGQVQDLAAQGLAFGVHVIISTPRWTELKSRVRDYLGTKIEFRLGDVNETQIDRITREIPANRPGRAVSMEKHHLMIGVPRFDGVHSADNLVEAITAGVTQIASQHTEQAPPVRVLPERIHLHELDPNPPGPESDYRTRWEIPIGLRETDLTPAHCHMHTNPHLLIFGAAKSGKTTIAHAIARAICARNSPQQVRFMLADYRSGLLDAVPDTHLLGAGAINRNSASLDEAVQALAVNLKKRLPPTDLTTAQLRSRSWWSGFDVVLLVDDWHMIVGAAGGMPPMAPLAPLLPAAADIGLHIIVTCQMSQAYKATMDKFVGAAFGSGAPTMFLSGEKQEFPSSEFKVKRRPPGQAFLVSPDGKEVIQAPYIEPPEEVFAAPPSAG
  stoichiometry N: 12
